Results on 2 molecules are retold here after US20020107366A1 (JURIDICAL FOUNDATION THE CHEMO SERO THERAPEUTIC RESEARCH …, published 2002).

B1: FLAF p40 (ligand)
chain: IWELEKNVYVVELDWHPDAPGEMVVLTCNTPEEDDITWTSDQSSEVLGSGKTLTIQVKEFADAGQYTCHKGGEVLSHSFLLIHKKEDGIWSTDILREQKESKNKIFLKCEAKNYSGRFTCWWLTAISTDLKFTVKSSRGSSDPQGVTCGAATLSAEKVRVDNRDYKKYTVECQEGSACPAAEESLPIEVVVDAIHKLKYENYTSSFFIRDIIKPDPPKNLQLKPLKNSRHVEVSWEYPDTWSTPHSYFSLTFGVQVQGKNNREKKDRLSVDKTSAKVVCHKDAKIRVQARDRYYSSSWSNWASVSCS
notes: also called protein with a molecular weight of about 40,000
B2: FLAF p35 (ligand)
chain: RNLPTPTPSPGMFQCLNHSQTLLRAISNTLQKARQTLEFYSCTSEEIDHEDITKDKTSTVEACLPLELTMNESCLASREISLITNGSCLASRKTSFMTTLCLSSIYEDLKMYQVEFKAMNAKLLMDPKRQIFLDQNMLTAIDELLQALNVNSVTVPQNSSLEEPDFYKTKIKLCILLHAFRIRAVTINRMMSYLNSS
notes: also called protein with a molecular weight of about 35,000

Data set [1] deals with the molecule itself. The data set can be described thus: Western blot of culture supernatant of COS7 cells transfected with CAGfp40; self-association of p40. How it is done: The day (20 hours) before transfection, COS7 cells were plated on a 6 well plate at 2×10⁵ cells/well. On the next day, Lipofect Ace reagent was mixed with the expression plasmid (1 μg of cAGf40 per well) and the mixture was left to stand at room temperature for 15 minutes and then added to the COS7 cells, followed by addition of serum free medium Opti-MEM (0.8 ml). On the next day, 2 ml of serum free medium (ASF104; Ajinomoto K. K.) was added and culture was continued for additional 2 days and then culture supernatant was recovered. A portion of the supernatant was subjected to Western blot as described in Example 11 to detect expression products which reacted with polyclonal antibodies which recognize FLAF p40. As a result, bands corresponding to FLAF p40 reactive with anti-FLAF p40 antibody (MW about 40,000) and to a homologous dimer thereof (MW about 80,000) were detected (FIG. 11).
A polyclonal antibody against FLAF p40 was prepared by injecting each 1 ml of the FLAF p40 expression plasmid (CAGfp40) (1 mg/ml; Example 5) intramuscularly into both rear legs of a rabbit four times at every 3 weeks. Western blot was used to determine whether the obtained antibody recognized FLAF p40 (FIG. 16). First, purified FLAF was subjected to SDS-PAGE in the absence of 2-mercaptoethanol and then transferred to PVDF membrane as described in Example 3. […]
Background: In western blotting, separated proteins are transferred to a membrane and probed.

The data set “FLAF p40” addresses B1. In words: non-reducing SDS-PAGE and Western blot with anti-p35 and anti-p40 antibodies; subunit association. As to the method:
These bands were analyzed by Western blot as described in Example 2 wherein two membranes were prepared, i.e. one using a monoclonal antibody against the partial synthetic peptide of FLAF p35 produced by the clone F18-4 as described in Example 12 as a primary antibody and another using the antibody against FLAF p40 as described in Example 11. As a result, both p75 and p80 reacted with both antibodies to confirm that they are both heterologous dimer of FLAF p35 and FLAF p40.

Regarding B1, the binding result in data set [1] was “binds”.
On to B2, for which the binding result in the data set with FLAF p40 was “binds”.
